{"source": "paper PMC7042235", "biological_target": "microtubules (polymerized porcine tubulin) (porcine) (UniProt P02550)", "experiment": "co-sedimentation; purified MTBDs (1-32 uM) mixed with 5 uM paclitaxel-stabilised porcine MTs; 100 mM PIPES pH 6.8, 50 mM NaCl, 2 mM MgCl2, 1 mM EGTA; 210,000 x g, 25 °C, 10 min; pellets on SDS-PAGE, densitometry, one-site curve fitting"}
{"substance": "MTBD-WT (microtubule-binding domain of yeast cytoplasmic dynein, K3096-E3232) (from UniProt P36022 3096-3232) (domain or fragment)", "values": [{"measurement": "Kd", "result": 6.7, "unit": "µM"}]}
